The results in this text go back to IntAct's records for PubMed 18940611.

Sequences and labels used below:
B1: Programmed cell death 6-interacting protein (Homo sapiens), Q8WUM4 (parent)
chain: MATFISVQLKKTSEVDLAKPLVKFIQQTYPSGGEEQAQYCRAAEELSKLRRAAVGRPLDKHEGALETLLRYYDQICSIEPKFPFSENQICLTFTWKDAFDKGSLFGGSVKLALASLGYEKSCVLFNCAALASQIAAEQNLDNDEGLKIAAKHYQFASGAFLHIKETVLSALSREPTVDISPDTVGTLSLIMLAQAQEVFFLKATRDKMKDAIIAKLANQAADYFGDAFKQCQYKDTLPKEVFPVLAAKHCIMQANAEYHQSILAKQQKKFGEEIARLQHAAELIKTVASRYDEYVNVKDFSDKINRALAAAKKDNDFIYHDRVPDLKDLDPIGKATLVKSTPVNVPISQKFTDLFEKMVPVSVQQSLAAYNQRKADLVNRSIAQMREATTLANGVLASLNLPAAIEDVSGDTVPQSILTKSRSVIEQGGIQTVDQLIKELPELLQRNREILDESLRLLDEEEATDNDLRAKFKERWQRTPSNELYKPLRAEGTNFRTVLDKAVQADGQVKECYQSHRDTIVLLCKPEPELNAAIPSANPAKTMQGSEVVNVLKSLLSNLDEVKKEREGLENDLKSVNFDMTSKFLTALAQDGVINEEALSVTELDRVYGGLTTKVQESLKKQEGLLKNIQVSHQEFSKMKQSNNEANLREEVLKNLATAYDNFVELVANLKEGTKFYNELTEILVRFQNKCSDIVFARKTERDELLKDLQQSIAREPSAPSIPTPAYQSSPAGGHAPTPPTPAPRTMPPTKPQPPARPPPPVLPANRAPSATAPSPVGAGTAAPAPSQTPGSAPPPQAQGPPYPTYPGYPGYCQMPMPMGYNPYAYGQYNMPYPPVYHQSPGQAPYPGPQQPSYPFPQPPQQSYYPQQ
B2: Programmed cell death 6-interacting protein (Homo sapiens), Q8WUM4 (parent)
chain: B1 chain
partner: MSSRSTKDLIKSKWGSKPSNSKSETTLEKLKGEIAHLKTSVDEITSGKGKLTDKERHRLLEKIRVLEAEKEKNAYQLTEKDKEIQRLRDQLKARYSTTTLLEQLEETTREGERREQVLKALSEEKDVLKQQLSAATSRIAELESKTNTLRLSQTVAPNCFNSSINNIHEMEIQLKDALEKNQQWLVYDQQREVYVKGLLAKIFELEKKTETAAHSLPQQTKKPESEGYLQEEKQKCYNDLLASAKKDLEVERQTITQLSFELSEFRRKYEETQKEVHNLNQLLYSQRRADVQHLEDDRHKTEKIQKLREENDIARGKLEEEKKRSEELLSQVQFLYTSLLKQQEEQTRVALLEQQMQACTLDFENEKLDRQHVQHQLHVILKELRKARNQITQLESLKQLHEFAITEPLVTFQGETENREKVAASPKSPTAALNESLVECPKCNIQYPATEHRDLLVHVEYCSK
B3: Programmed cell death protein 6 (Homo sapiens), O75340 (parent)
chain: MAAYSYRPGPGAGPGPAAGAALPDQSFLWNVFQRVDKDRSGVISDTELQQALSNGTWTPFNPVTVRSIISMFDRENKAGVNFSEFTGVWKYITDWQNVFRTYDRDNSGMIDKNELKQALSGFGYRLSDQFHDILIRKFDRQGRGQIAFDDFIQGCIVLQRLTDIFRRYDTDQDGWIQVSYEQYLSMVFSIV

Variants of B1 are the subject of the first experiment. Particulars: with pdcd6_human PDCD6, O75340.
Turning to Y803A, the “effect of a mutation on the interaction” value is listed as “disrupting interaction”. P802A: the “effect of a mutation on the interaction” value is “disrupting interaction”.

For the variant P804A, the “effect of a mutation on the interaction” value was “disrupting interaction”.

A further experiment covers variants of B1. To be noted: with pdcd6_human PDCD6, O75340. This is another data set of the same source.
As to Y803A, the “effect of a mutation on the interaction” value is given as “decreasing interaction”. As to P802A, the “effect of a mutation on the interaction” value was “decreasing interaction”. As for P804A, the “effect of a mutation on the interaction” value was “decreasing interaction”.

The variants in the next experiment derive from B2. To be noted: with cep55_human CEP55, Q53EZ4.
In the case of P802A, the “effect of a mutation on the interaction” value was “disrupting interaction”.

Variants of B3 are the subject of the next experiment. To be noted: with pdc6i_human PDCD6IP.
Regarding D169A, the “effect of a mutation on the interaction” value is “disrupting interaction”.

On to Y124A, for which the “effect of a mutation on the interaction” value is on record as “disrupting interaction”. With W95A, the “effect of a mutation on the interaction” value is given as “disrupting interaction”.

In the case of R125A, the “effect of a mutation on the interaction” value is listed as “disrupting interaction”. On the same count and under the same terms, the entry for Y91A is “disrupting interaction”. For the variant Y180A, the “effect of a mutation on the interaction” value is recorded as “disrupting interaction”.
